Data taken from publication PMC10183829, “Shuffled ATG8 interacting motifs form an ancestral bridge between UFMylation and autophagy” (The EMBO Journal, 2023).
Residue numbers refer to the chain shown, from its start. No end group written: not given here. TAMRA = 5(6)-carboxytetramethylrhodamine

B1: sAIM1,2 peptide (AtC53 IDR-derived peptide that covers both sAIM1 and sAIM2) (peptide)
chain: {TAMRA}-AADSIDWDITVETPEIDWDVSMVEEV
B2: GST-ATG8A (natural protein)
chain: MAKSSFKISNPLEARMSESSRIREKYPDRIPVIVEKAGQSDVPDIDKKKYLVPADLTVGQFVYVVRKRIKLGAEKAIFVFVKNTLPPTAALMSAIYEEHKDEDGFLYMTYSGENTFG
notes: also called Arabidopsis ATG8A; not shown: GST, N-terminal, kept
B3: GST-GABARAP (natural protein, human, UniProt O95166 1-117, looked up)
chain: MKFVYKEEHPFEKRRSEGEKIRKKYPDRVPVIVEKAPKARIGDLDKKKYLVPSDLTVGQFYFLIRKRIHLRAEDALFFFVNNVIPPTSATMGQLYQEHHEEDFFLYIAYSDESVYGL
notes: also called human ATG8 isoform GABARAP; human ATG8; not shown: GST, N-terminal, kept
B4: AtUBA5 LIR peptide (peptide)
peptide: GPLHDDNEWNISVVDD
notes: LIR/UFIM peptide of UBA5; also called AtUBA5 LIR/UFIM peptide; UBA5 LIR/UFIM; source: synthetic peptide (synthetized in house)
B5: GABARAP (purified) (natural protein, human)
chain: FVYKEEHPFEKRRSEGEKIRKKYPDRVPVIVEKAPKARIGDLDKKKYLVPSDLTVGQFYFLIRKRIHLRAEDALFFFVNNVIPPTSATMGQLYQEHHEEDFFLYIAYSDESVYG
notes: GABARAP, Homo sapiens; 15N-labelled in the NMR titration; also called HIS6-3C-GABARAP; HIS6-GABARAP; source: E. coli Rosetta2 (DE3) pLysS, purified (HisTrap, ion exchange, SEC)
B6: HsC53^cAIM (purified, ITC) (natural protein)
chain: MEDHQHVPIDIQTSKLLDWLVDRRHCSLKWQSLVLTIREKINAAIQDMPESEEIAQLLSGSYIHYFHCLRILDLLKGTEASTKNIFGRYSSQRMKDWQEIIALYEKDNTYLVELSSLLVRNVNYEIPSLKKQIAKCQQLQQEYSRKEEECQAGAAEMREQFYHSCKQYGITGENVRGELLALVKDLPSQLAEIGAAAQQSLGEAIDVYQASVGFVCESPTEQVLPMLRFVQKRGNSTVYEWRTGTEPSVVERPHLEELPEQVAEDAWDGIDFGVEAVSEGTDSGISAEAAGWDGIIFPESDSKDPGGDGWDGIDDAVALQITVLEAGTQAPEGVARGPDALTLLEYTETRNQFLDELMELEIFLAQRAVELSEEADVLSVSQFQLAPAILQGQTKEKMVTMVSVLEDLIGKLTSLQLQHLFMILASPRYVDRVTEFLQQKLKQSQLLALKKELMVQKQQEALEEQAALEPKLDLLLEKTKELQKLIEADISKRYSGRPVNLMGTSL
notes: source: E. coli Rosetta2 (DE3) pLysS, purified

Columns and labels:
Details in all cases: both partners purified
AtUFM1 (purified) = target: T1, AtUFM1 (purified) (Arabidopsis thaliana); test: fluorescence polarisation; fluorescence anisotropy; ATG8A or AtUFM1 (250 nM-320 μM) added to 50 nM TAMRA-labeled peptide, 10 min at 4°C
T1 construct: UFM1, Arabidopsis thaliana; 15N-labelled or unlabelled in NMR; also called HIS6-3C-AtUFM1; HIS6-AtUFM1; source: E. coli Rosetta2 (DE3) pLysS, purified (HisTrap, ion exchange, SEC)

ATG8A (purified) = target: T2, ATG8A (purified) (Arabidopsis thaliana, UniProt Q8LEM4 1-117); test: as above
T2 construct: ATG8A, Arabidopsis thaliana; 3C site after the His6 tag; 15N-labelled or unlabelled in NMR; also called HIS6-3C-ATG8A; source: E. coli Rosetta2 (DE3) pLysS, purified (HisTrap, ion exchange, SEC)
T2 sequence (looked up): B2 chain

cAIM wt peptide = test: microscopy-based on-bead protein-protein interaction assay
mCh-HsC53 = target: T3, mCh-HsC53 (human, UniProt Q96JB5 1-506); test: as above
T3 construct: also called mCherry-tagged human C53; not shown: mCherry, N-terminal, kept
T3 sequence (looked up): B6 chain with W267I, G269W, I270G, W292I, G294W, I295G, W310I, G312W, I313G

HsUFM1 (purified) = target: T4, HsUFM1 (purified) (human, UniProt P61960 1-85); test: native MS; HsUFM1 (5 μM) with peptide (25 μM); ammonium acetate, nanoelectrospray, Synapt G2Si
T4 construct: UFM1, Homo sapiens; 15N-labelled in the NMR titration; also called human UFM1; source: E. coli Rosetta2 (DE3) pLysS, purified (HisTrap, ion exchange, SEC)
T4 sequence (P61960 whole entry): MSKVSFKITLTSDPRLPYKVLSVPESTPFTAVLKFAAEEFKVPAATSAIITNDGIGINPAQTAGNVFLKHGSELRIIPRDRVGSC

[1] = target: B6; test: ITC
GABARAP (purified) = target: B5; test: ITC

For B1, the Kd (AtUFM1 (purified)) was 148 µM and the Kd (ATG8A (purified)) was 26.5 µM.

B2: binds (cAIM wt peptide).

B3: binds (mCh-HsC53).

With B4 the “stoichiometry N” value (HsUFM1 (purified)) was 1.

Work on B5 yielded a Kd [1] of 11.2 µM.

B6 was tested, and the “fold increase in affinity against the C53 wild type” value (GABARAP (purified)) was 1.8 fold.
